Test results reported in US20220204643A1 (published 2022).
Blank lines part the entries; values can stand above or below the binder they belong to.

Experiments:
F-box protein 2 = biological target: T1, F-box protein 2 (human, UniProt Q9UK22 1-296); assay: protein array
T1 construct: on protein array; also called FBXO2
T1 sequence: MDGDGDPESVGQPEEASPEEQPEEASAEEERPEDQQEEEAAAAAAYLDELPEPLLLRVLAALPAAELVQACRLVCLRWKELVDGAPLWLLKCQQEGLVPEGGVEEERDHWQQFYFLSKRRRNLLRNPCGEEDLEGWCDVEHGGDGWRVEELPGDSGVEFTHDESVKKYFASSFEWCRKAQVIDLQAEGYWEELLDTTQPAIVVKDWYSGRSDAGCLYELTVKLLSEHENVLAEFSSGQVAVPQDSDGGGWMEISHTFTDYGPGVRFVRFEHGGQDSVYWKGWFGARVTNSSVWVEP

tubulin gamma 1 = biological target: T2, tubulin gamma 1 (human, UniProt P23258 1-451); assay: protein array
T2 construct: on protein array; also called TUBG1
T2 sequence (P23258 whole entry): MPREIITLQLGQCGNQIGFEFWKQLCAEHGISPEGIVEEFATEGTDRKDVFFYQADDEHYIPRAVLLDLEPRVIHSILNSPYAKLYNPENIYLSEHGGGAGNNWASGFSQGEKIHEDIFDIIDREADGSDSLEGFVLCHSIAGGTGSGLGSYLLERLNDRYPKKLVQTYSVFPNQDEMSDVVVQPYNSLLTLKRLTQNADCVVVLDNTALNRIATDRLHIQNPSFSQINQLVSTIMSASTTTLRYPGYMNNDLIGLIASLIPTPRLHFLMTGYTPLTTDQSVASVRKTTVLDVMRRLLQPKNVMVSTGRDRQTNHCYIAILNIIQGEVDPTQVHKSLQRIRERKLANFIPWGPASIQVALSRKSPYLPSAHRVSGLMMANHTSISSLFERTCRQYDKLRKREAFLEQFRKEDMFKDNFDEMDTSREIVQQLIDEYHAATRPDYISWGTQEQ

DEAD-box helicase 53 = biological target: T3, DEAD-box helicase 53 (human, UniProt Q86TM3 1-631); assay: protein array
T3 construct: on protein array; also called DDX53
T3 sequence (Q86TM3 other isoform, or with tags, fused parts or gaps limits assumed): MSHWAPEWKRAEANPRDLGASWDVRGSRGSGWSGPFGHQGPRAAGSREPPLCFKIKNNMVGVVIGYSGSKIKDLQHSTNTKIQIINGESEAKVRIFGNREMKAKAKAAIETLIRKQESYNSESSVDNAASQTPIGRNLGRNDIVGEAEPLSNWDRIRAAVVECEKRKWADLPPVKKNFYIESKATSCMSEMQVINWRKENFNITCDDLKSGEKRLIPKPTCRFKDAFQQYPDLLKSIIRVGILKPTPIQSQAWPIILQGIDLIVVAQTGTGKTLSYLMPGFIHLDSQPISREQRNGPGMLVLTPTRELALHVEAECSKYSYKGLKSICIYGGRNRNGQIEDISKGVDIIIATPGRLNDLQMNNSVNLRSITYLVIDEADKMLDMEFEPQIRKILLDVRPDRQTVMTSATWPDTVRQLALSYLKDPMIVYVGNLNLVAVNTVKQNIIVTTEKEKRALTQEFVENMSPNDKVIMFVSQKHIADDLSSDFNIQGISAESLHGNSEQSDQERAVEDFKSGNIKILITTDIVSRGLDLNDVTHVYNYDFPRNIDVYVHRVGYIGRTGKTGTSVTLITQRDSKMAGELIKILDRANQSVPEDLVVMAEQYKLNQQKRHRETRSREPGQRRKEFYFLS

[1] = biological target: T4, Vezatin, adherens junctions transmembrane protein (human, UniProt Q9HBM0 56-779 at identity 0.99)); assay: protein array
T4 construct: on protein array; also called VEZT
T4 chain: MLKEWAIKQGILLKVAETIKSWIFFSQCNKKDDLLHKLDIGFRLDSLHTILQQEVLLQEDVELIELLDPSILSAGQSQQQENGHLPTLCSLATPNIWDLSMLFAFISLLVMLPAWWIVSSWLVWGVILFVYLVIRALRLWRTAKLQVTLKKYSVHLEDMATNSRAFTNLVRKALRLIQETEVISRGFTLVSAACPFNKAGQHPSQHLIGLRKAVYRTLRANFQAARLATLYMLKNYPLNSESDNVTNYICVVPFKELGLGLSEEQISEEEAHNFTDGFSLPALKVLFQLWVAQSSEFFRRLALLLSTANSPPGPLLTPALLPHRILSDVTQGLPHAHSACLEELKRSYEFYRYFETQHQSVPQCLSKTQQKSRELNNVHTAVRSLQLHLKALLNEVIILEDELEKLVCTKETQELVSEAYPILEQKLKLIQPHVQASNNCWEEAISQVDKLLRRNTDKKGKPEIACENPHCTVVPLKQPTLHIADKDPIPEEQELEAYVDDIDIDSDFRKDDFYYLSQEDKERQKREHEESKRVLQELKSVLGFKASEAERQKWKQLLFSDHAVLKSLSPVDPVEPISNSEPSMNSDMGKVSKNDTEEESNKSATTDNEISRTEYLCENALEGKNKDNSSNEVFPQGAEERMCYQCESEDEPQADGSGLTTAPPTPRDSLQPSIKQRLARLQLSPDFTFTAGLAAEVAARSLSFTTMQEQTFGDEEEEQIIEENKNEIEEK

[2] = biological target: T5, Rna polymerase iii subunit g (human, UniProt O15318 1-223); assay: protein array
T5 construct: on protein array; also called POLR3G
T5 sequence: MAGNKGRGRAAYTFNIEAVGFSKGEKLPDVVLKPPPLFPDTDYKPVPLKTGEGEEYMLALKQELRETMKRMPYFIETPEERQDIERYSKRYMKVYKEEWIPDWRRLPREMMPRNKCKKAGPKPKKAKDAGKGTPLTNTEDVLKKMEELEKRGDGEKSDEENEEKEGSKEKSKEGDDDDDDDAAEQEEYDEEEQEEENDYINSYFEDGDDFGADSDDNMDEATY

[3] = biological target: T6, oxidation resistance 1, transcript variant 1 (human, UniProt Q8N573 90-874, limits assumed); assay: protein array
T6 construct: on protein array; also called OXR1
T6 sequence: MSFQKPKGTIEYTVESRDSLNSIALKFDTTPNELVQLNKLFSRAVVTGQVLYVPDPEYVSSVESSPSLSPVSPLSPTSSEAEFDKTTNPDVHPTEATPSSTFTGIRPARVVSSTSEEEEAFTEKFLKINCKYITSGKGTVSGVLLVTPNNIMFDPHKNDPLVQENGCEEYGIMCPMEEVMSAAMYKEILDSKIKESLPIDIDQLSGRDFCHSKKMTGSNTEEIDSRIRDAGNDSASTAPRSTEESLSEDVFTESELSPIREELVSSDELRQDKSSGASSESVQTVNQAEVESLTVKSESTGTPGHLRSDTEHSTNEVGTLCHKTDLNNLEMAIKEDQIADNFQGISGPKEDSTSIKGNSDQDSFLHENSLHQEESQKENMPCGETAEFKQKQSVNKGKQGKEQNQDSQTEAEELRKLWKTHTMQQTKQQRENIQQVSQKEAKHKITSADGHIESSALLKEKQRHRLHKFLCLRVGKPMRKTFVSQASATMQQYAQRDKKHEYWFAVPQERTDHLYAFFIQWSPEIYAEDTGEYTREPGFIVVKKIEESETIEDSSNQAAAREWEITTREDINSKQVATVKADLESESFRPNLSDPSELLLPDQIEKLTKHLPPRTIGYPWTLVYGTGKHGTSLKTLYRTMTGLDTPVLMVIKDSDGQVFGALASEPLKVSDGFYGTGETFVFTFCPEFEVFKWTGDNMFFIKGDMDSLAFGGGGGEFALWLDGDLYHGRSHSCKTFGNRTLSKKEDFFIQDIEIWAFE

[4] = biological target: T7, grancalcin, transcript variant 4 (human, UniProt P28676 1-217); assay: protein array
T7 construct: on protein array; also called GCA
T7 sequence: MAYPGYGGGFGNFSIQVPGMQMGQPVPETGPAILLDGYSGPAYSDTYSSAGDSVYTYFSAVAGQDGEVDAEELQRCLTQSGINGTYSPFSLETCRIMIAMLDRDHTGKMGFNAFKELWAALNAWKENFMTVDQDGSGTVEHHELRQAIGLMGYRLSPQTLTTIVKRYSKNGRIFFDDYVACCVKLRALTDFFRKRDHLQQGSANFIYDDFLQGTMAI

[5] = biological target: T8, sorting nexin 1, transcript variant 1 (human, UniProt Q13596 1-522); assay: protein array
T8 construct: on protein array; also called SNX1
T8 sequence (Q13596 whole entry, change not shown): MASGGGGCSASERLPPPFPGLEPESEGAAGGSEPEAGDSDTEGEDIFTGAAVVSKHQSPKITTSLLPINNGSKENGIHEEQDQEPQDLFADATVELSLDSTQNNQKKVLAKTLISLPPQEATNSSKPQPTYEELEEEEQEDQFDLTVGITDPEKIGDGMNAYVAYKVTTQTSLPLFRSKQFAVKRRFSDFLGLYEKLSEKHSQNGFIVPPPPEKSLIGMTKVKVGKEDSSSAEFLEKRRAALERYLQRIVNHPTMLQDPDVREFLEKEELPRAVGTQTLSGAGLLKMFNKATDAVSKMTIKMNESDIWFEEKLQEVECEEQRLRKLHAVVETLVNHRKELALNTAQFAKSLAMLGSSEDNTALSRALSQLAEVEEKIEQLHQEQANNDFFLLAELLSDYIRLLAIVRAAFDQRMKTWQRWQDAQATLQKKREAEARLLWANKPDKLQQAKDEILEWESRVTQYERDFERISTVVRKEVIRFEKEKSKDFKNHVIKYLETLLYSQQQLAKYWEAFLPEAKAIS

[6] = biological target: T9, nudix hydrolase 22, transcript variant 2 (human, UniProt Q9BRQ3 1-303); assay: protein array
T9 construct: on protein array; also called NUDT22
T9 chain: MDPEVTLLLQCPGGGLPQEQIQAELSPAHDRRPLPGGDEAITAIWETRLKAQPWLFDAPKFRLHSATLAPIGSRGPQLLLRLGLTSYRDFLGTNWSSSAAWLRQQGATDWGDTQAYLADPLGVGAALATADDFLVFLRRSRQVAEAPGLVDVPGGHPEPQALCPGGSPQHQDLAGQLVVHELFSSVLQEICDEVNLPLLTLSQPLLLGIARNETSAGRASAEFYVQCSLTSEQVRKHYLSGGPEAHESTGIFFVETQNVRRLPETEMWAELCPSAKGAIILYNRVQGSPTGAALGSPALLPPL

[7] = biological target: T10, glucuronidase, beta pseudogene (human); assay: protein array
T10 construct: on protein array; also called BC025996.2_frag
T10 chain: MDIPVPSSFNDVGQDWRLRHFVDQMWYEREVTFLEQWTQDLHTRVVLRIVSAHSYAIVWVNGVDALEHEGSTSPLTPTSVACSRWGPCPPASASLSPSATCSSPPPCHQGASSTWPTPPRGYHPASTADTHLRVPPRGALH

[8] = biological target: T11, CRK like proto-oncogene, adaptor protein, transcript variant 1 (human, UniProt P46109 1-303); assay: protein array, with experimental replicate
T11 construct: on protein array
T11 sequence (P46109 whole entry, change not shown): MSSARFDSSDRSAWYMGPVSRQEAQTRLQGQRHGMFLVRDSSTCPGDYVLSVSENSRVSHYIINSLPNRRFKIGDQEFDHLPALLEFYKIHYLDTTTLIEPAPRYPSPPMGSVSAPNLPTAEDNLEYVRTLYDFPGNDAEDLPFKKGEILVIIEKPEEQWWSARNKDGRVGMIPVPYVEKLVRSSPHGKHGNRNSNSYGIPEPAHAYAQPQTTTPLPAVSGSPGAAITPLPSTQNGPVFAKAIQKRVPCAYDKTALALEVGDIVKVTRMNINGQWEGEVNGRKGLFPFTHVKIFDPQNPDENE

binding result (F-box protein 2): binds | binding result (tubulin gamma 1): binds
B1: TPAN1007 (antibody, V domains shown)
VH: PVQLVQSGAEVKKPGESLKISCQGSGYNFSRYWIGWVRQMPGKGLEWMGVVFPGDSDIRYSLSFQGHITIYADNSISTAYLQWSSLKASDTAIYYCATTSTMPMPTRGRDWFDPWGQGTLVTVSS
VL: PSVLTQPPSVSGAPGQRVTISCTGSSSNIGAGYDVHWYQQLPGTAPKLLIYANTNRPSGVPDRFSGSKSGTSASLAITGLQAEDEADYYCQSYDNSLSGGVFGGGTKLTVLG
notes: VH/VL tied via antigen in summary, not by name in this stretch

binding result (DEAD-box helicase 53): binds | binding result [1]: binds
B2: TOVA1005 (antibody, V domains shown)
VH: QITLKESGPTLVKPTQTLTLTCTFSGFSLSTNGVGVGWIRQPPGKALEWLALINWDDDKRYSPSLKSRLTITKDTSKNQVVLTMTNLDPVDTATYYCVHARDDYGDSAWSTGPVWGQGTLVTVSS
VL: DFLLTQPHSVSESPGKTVTISCTRSSGSIASNYVQWYQQRPGSSPSTVIYEDHQRPSGVPGRFSGSIDSSSNSASLTISGLKTEDEADYFCQSSDSNNHVVFGGGTKLTVLG
notes: as for B1

binding result [2]: binds
B3: TPAN1003 (antibody, V domains shown)
VH: QVQLVQSGAEVKKPGASVKISCQAFGYNFIDNAIHWVRQAPGQRPEWMGWINAGNGNTRYSQNFQGRVTITKVTSASTAYMEMSRLKSEDTAVYFCARSSKWTDWHFDYWGQGTLVTVSS
VL: EIVLTQSPGTLSLSPGETATLSCRASQSVANNYLAWHQQKPGQAPRLLIYGASKRAAGIPDRFSGSGSGTEFTLTISRLEPEDCAVYYCQEYVKSPGFAFGPGTRVDIKR
notes: as for B1

binding result [3]: binds
B4: TPRO1001 (antibody, V domains shown)
VH: EVQLVQSGAEVKKPGESLRISCKGSGYSFTSFWISWVRQMPGKGLEWMGRIDPSDSYTNYSPSFQGHVTISADKSISTAFLQWSSLKASDTAMYYCARHQQKYSPISPLDYWGQGTLVTVSS
VL: QSALTQPASVSGSPGQSITISCTGTSSDVGGYNYVSWYQQHPGKAPKLMIYDVSNRPSGVSNRFSGSKSGNTASLTISGLQAEDEADYYCSSYTSSSSLVFGGGTKVTVLG
notes: as for B1

binding result [4]: binds
B5: TPAN1001 (antibody, V domains shown)
VH: QVQLVQSGAEVKKPGSSVKVSCKASRGTFSNHAVSWVRQAPGQGLEWVGGIIPVFGPPNYAQKFRGRVTITADRSTNTAYMELNSLRSEDTAVYYCARTQWGTDVEATNPYYYFMDVWGKGTTVTVSS
VL: EIVLTQSPGTLSLSPGHRATLSCRASQDVASTYLAWYQQKPGQAPRLLIYGASSRATGIPDRFSGSGSGTDFTLTISRLEPEDFAVFYCQYYGGSPGFTFGPGTKVDFKR
notes: as for B1

binding result [5]: binds
B6: TPAN1004 (antibody, V domains shown)
VH: QIQLVQSGAEVKKPGASVKVSCKTSGYTFTHYGVAWVRQAPGQGPEWMGWISPYNGNIEYGQKFQGRVTMTTDTSTNTAYMELRSLRYDDTAVYYCARDLDEINSSWLDPWGQGTLIIVSP
VL: EIVLTQSPATLSLSPGERATLSCRASQSVSSNYLAWYQQKPGQAPRLLIHGASSRATGFPDRFSGSGSGTDFTLTINRLEPEDFAVYYCQQYGTSPQTFGQGTKVEIKR
notes: as for B1

binding result [6]: binds
B7: TOVA1007 (antibody, V domains shown)
VH: PVQLQESGPGLVNPSQTLSLTCTVSGGSISSGGYCWSWVRQHPGKGLEWIGCIYYIGTTYYMRSLKSRLIISIDTSKNQFSLKLTSVTAADSAVYYCARGGELLGGFGYSGMDVWGQGTTVTVSS
VL: not shown
notes: as for B1

binding result [7]: binds
B8: TBRE1006 (antibody, V domains shown)
VH: QVQLVQSGAEVKKPGASVKVSCKASGYIFTSYAIHWVRQAPGQRLEWMGWINAGNGNTKYSQKFQGRVTITRDTSANTAYMELSSLRSEDTAIYYCARDIAVAITNYFGSWGQGTLVTVSS
VL: EIVLTQSPATLSLSPGERATLSCRASQSVGSYLAWYQQKPGQAPRLLIYDASNRATGIPARFSGSGSGTDFTLTISSLEPEDFAVYYCQQGSNWLALTFGGGTKVEIKR
notes: VH/VL only

binding result [8]: binds
B9: TPAN1006 (antibody, V domains shown)
VH: QVQLVQSGAEVKKPGASVKLSCKPSGYTFSSYYIHWLRQAPGQGLEWMGIINPSGGYTSSAQKFQGRVTMTRDTSTSTIYMELSSLRAEDTAVYYCARRGEVGTMVRVFRKPFDYWGQGTLVTVSS
VL: QSVLTQPPSVSGAPGQRVTISCTGSSSNIGAQYDVHWYKVIPGTAPKLLIYGNDNRPSGVPDRFSGSKSGTSASLAITGLQSEDEADYYCQSNDISLSGSVVFGGGTKLTVLG
notes: as for B1
